Experimental findings from patent US20050158799A1 (published 2005) are described below.

In this test the target is T1, TLR3-YFP (Toll-Like Receptor 3 fused to yellow fluorescent polypeptide), stably expressed in HELA cells (UniProt O15455 24-904).
T1 construct: Immunoprecipitated from whole cell lysates with anti-GFP antibody; not shown: yellow fluorescent polypeptide (YFP)
T1 sequence (looked up): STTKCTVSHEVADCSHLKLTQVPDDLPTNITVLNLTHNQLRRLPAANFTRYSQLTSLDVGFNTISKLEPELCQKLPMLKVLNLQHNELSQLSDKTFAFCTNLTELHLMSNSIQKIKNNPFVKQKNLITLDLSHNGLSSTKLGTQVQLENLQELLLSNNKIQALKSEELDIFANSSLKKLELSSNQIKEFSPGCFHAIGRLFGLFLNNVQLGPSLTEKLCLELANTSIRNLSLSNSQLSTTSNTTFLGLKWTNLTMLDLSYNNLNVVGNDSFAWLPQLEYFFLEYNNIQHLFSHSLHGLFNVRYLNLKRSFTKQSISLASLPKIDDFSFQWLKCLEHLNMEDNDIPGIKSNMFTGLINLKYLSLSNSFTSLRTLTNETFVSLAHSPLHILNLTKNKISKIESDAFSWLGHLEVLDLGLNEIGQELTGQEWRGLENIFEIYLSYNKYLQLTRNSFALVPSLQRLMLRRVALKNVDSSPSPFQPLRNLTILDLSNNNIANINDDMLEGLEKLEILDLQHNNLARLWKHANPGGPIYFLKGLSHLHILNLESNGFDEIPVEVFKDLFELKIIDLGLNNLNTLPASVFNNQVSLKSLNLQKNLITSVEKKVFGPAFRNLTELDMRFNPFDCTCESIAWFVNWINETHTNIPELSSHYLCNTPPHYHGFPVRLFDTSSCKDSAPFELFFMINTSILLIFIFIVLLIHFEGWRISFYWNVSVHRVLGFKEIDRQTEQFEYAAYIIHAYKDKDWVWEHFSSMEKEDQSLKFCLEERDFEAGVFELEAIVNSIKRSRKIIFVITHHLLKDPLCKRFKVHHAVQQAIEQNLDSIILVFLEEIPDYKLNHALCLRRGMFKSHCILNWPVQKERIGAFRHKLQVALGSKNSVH
The experiment in a line: co-immunoprecipitation from TLR3-YFP HELA cell lysates with anti-GFP, blot for Flag. How it is done: 293T cells or TLR-expressing cells (10 cm plates) were transfected using GeneJuice (Novagen) with 4 μg of the indicated plasmids. One to two days after transfection, the cells were lysed in 1 ml of lysis buffer (20 mM Tris-HCl, 2 mM EDTA, 137 mM NaCl, 0.5% Triton X-100, 10% glycerol with protease inhibitors). Polyclonal anti-GFP (Molecular Probes), anti-IRF-3 or anti-CBP antibodies were incubated overnight with the cell lysates in […]. The immune complexes were precipitated and subjected to 4-15% SDS-PAGE and immunoblotted for FLAG- or CFP/YFP-tagged adapters using the anti-Flag mAb M2 (Sigma), or anti-GFP mAb (Clontech), which also recognizes the spectral variants of GFP.
Co-immunoprecipitation studies were performed to determine if TRAM interacts with TLR4. Stable TLR4^YFP- or TLR3^YFP-expressing HELA cells were transiently transfected with 4 μg of plasmid encoding Flag-Mal, Flag-TRAM or Flag TRAM-C117H. Forty-eight hours after transfection, whole cell lysates were immunoprecipitated with anti-GFP antibody and immunoprecipitated complexes immunoblotted for Flag-tagged adapters and co-immunoprecipitation experiments performed.

B1: Flag-tagged Mal (MyD88 adaptor-like; TIRAP) (other, UniProt P58753-2 1-235, looked up)
chain: MASSTSLPAPGSRPKKPLGKMADWFRQTLLKKPKKRPNSPESTSSDASQPTSQDSPLPPSLSSVTSPSLPPTHASDSGSSRWSKDYDVCVCHSEEDLVAAQDLVSYLEGSTASLRCFLQLRDATPGGAIVSELCQALSSSHCRVLLITPGFLQDPWCKYQMLQALTEAPGAEGCTIPLLSGLSRAAYPPELRFMYYVDGRGPDGGFRQVKEAVMRCKLLQEGEGERDSATVSDLL
notes: pEF-Bos-Flag Mal as described in Fitzgerald et al; also called Flag-Mal; pEF-Bos-Flag Mal; not shown: Flag tag
On to B1, for which the binding result is “no binding”.
